± gives the standard deviation of the averaged measurements.
Test: total protein half-life in vivo (active degradation + dilution); higher = more stable protein
[1] = E. coli NCM3722 delta-clpP delta-lon delta-hslV, growth: N-lim chemostat, doubling time 6 h
[2] = E. coli NCM3722 delta-clpP, growth: N-lim chemostat, doubling time 6 h
[3] = E. coli NCM3722 delta-hslV, growth: N-lim chemostat, doubling time 6 h
[4] = E. coli NCM3722 delta-lon, growth: N-lim chemostat, doubling time 6 h
[5] = E. coli NCM3722 delta-smpB, growth: N-lim chemostat, doubling time 6 h
[6] = wild type E. coli NCM3722, growth: C-lim chemostat, doubling time 3 h
[7] = wild type E. coli NCM3722, growth: C-lim chemostat, doubling time 6 h
[8] = wild type E. coli NCM3722, growth: C-lim chemostat, doubling time 12 h
[9] = wild type E. coli NCM3722, growth: N-lim chemostat, doubling time 6 h
[10] = wild type E. coli NCM3722, growth: N-lim chemostat, doubling time 12 h
[11] = wild type E. coli NCM3722, growth: P-lim chemostat, doubling time 6 h
[12] = wild type E. coli NCM3722, growth: P-lim chemostat, doubling time 12 h

Row | Sequence | total protein half-life in vivo [1] | total protein half-life in vivo [2] | total protein half-life in vivo [3] | total protein half-life in vivo [4] | total protein half-life in vivo [5] | total protein half-life in vivo [6] | total protein half-life in vivo [7] | total protein half-life in vivo [8] | total protein half-life in vivo [9] | total protein half-life in vivo [10] | total protein half-life in vivo [11] | total protein half-life in vivo [12]
1 | MRLIITFLMAWCLSWGAYAATAPDSKQITQELEQAKAAKPAQPEVVEALQSALNALEERKGSLERIKQYQQVIDNYPKLSATLRAQLNNMRDEPRSVSPGMSTDALNQEILQVSSQLLDKSRQAQQEQERAREIADSLNQLPQQQTDARRQLNEIERRLGTLTGNTPLNQAQNFALQSDSARLKALVDELELAQLSANNRQELARLRSELAEKESQQLDAYLQALRNQLNSQRQLEAERALESTELLAENSADLPKDIVAQFKINRELSAALNQQAQRMDLVASQQRQAASQTLQVRQALNTLREQSQWLGSSNLLGEALRAQVARLPEMPKPQQLDTEMAQLRVQRLRYEDLLNKQPLLRQIHQADGQPLTAEQNRILEAQLRTQRELLNSLLQGGDTLLLELTKLKVSNGQLEDALKEVNEATHRYLFWTSDVRPMTIAWPLEIAQDLRRLISLDTFSQLGKASVMMLTSKETILPLFGALILVGCSIYSRRYFTRFLERSAAKVGKVTQDHFWLTLRTLFWSILVASPLPVLWMTLGYGLREAWPYPLAVAIGDGVTATVPLLWVVMICATFARPNGLFIAHFGWPRERVSRGMRYYLMSIGLIVPLIMALMMFDNLDDREFSGSLGRLCFILICGALAVVTLSLKKAGIPLYLNKEGSGDNITNHMLWNMMIGAPLVAILASAVGYLATAQALLARLETSVAIWFLLLVVYHVIRRWMLIQRRRLAFDRAKHRRAEMLAQRARGEEEAHHHSSPEGAIEVDESEVDLDAISAQSLRLVRSILMLIALLSVIVLWSEIHSAFGFLENISLWDVTSTVQGVESLEPITLGAVLIAILVFIITTQLVRNLPALLELAILQHLDLTPGTGYAITTITKYLLMLIGGLVGFSMIGIEWSKLQWLVAALGVGLGFGLQEIFANFISGLIILFEKPIRIGDTVTIRDLTGSVTKINTRATTISDWDRKEIIVPNKAFITEQFINWSLSDSVTRVVLTIPAPADANSEEVTEILLTAARRCSLVIDNPAPEVFLVDLQQGIQIFELRIYAAEMGHRMPLRHEIHQLILAGFHAHGIDMPFPPFQMRLESLNGKQTGRTLTSAGKGRQAGSL | 6.45 ± 0.14 h | 6.87 ± 1.2 h | 6.3 ± 0.62 h | 6.27 ± 0.29 h | 5.67 ± 0.52 h | 3.35 ± 0.12 h | 6.73 ± 0.79 h | 13.1 ± 1.4 h | 6.49 ± 0.46 h | 13.3 ± 2.1 h | 5.95 ± 0.7 h | 12.8 ± 0.24 h
2 | MIYLRKANERGHANHGWLDSWHTFSFANYYDPNFMGFSALRVINDDVIEAGQGFGTHPHKDMEILTYVLEGTVEHQDSMGNKEQVPAGEFQIMSAGTGIRHSEYNPSSTERLHLYQIWIMPEENGITPRYEQRRFDAVQGKQLVLSPDARDGSLKVHQDMELYRWALLKDEQSVHQIAAERRVWIQVVKGNVTINGVKASTSDGLAIWDEQAISIHADSDSEVLLFDLPPV | – | 4.3 ± 0.072 h | 4.52 ± 0.68 h | 4.67 ± 0.054 h | 4.36 ± 0.26 h | 2.84 ± 0.096 h | 5.31 ± 0.29 h | 8.6 ± 2.5 h | 4.51 ± 0.2 h | 7.3 ± 0.36 h | 5.54 ± 0.17 h | 11.6 ± 0.069 h
3 | MSQTIDLTLDGLSCGHCVKRVKESLEQRPDVEQADVSITEAHVTGTASAEQLIETIKQAGYDASVSHPKAKPLAESSIPSEALTAVSEALPAATADDDDSQQLLLSGMSCASCVTRVQNALQSVPGVTQARVNLAERTALVMGSASPQDLVQAVEKAGYGAEAIEDDAKRRERQQETAVATMKRFRWQAIVALAVGIPVMVWGMIGDNMMVTADNRSLWLVIGLITLAVMVFAGGHFYRSAWKSLLNGAATMDTLVALGTGVAWLYSMSVNLWPQWFPMEARHLYYEASAMIIGLINLGHMLEARARQRSSKALEKLLDLTPPTARLVTDEGEKSVPLAEVQPGMLLRLTTGDRVPVDGEITQGEAWLDEAMLTGEPIPQQKGEGDSVHAGTVVQDGSVLFRASAVGSHTTLSRIIRMVRQAQSSKPEIGQLADKISAVFVPVVVVIALVSAAIWYFFGPAPQIVYTLVIATTVLIIACPCALGLATPMSIISGVGRAAEFGVLVRDADALQRASTLDTVVFDKTGTLTEGKPQVVAVKTFADVDEAQALRLAAALEQGSSHPLARAILDKAGDMQLPQVNGFRTLRGLGVSGEAEGHALLLGNQALLNEQQVGTKAIEAEITAQASQGATPVLLAVDGKAVALLAVRDPLRSDSVAALQRLHKAGYRLVMLTGDNPTTANAIAKEAGIDEVIAGVLPDGKAEAIKHLQSEGRQVAMVGDGINDAPALAQADVGIAMGGGSDVAIETAAITLMRHSLMGVADALAISRATLHNMKQNLLGAFIYNSIGIPVAAGILWPFTGTLLNPVVAGAAMALSSITVVSNANRLLRFKPKE | 5.76 ± 0.52 h | 5.33 ± 0.2 h | 5.194 ± 0.042 h | 5.433 ± 0.023 h | 5.23 ± 0.55 h | 2.89 ± 0.21 h | 5.07 ± 0.085 h | 9.5 ± 0.77 h | 5.26 ± 0.34 h | 9.52 ± 0.35 h | 5.33 ± 0.32 h | 9.65 ± 0.45 h
4 | MSVTIQGNTSTVISNNSAPEGTSEIAKITRQIQVLTEKLGKISSEEGMTTQQKKEMAALVQKQIESLWAQLEQLLRQQAEKKNEDATVQPDKKEEKKDDTNTAGTIDIYV | – | – | – | – | – | 0.426 h | – | – | – | – | – | –
5 | MQTIIRVEKLAKTFNQHQALHAVDLNIHHGEMVALLGPSGSGKSTLLRHLSGLITGDKSVGSHIELLGRTVQREGRLARDIRKSRAHTGYIFQQFNLVNRLSVLENVLIGALGSTPFWRTCFSWFTGEQKQRALQALTRVGMVHFAHQRVSTLSGGQQQRVAIARALMQQAKVILADEPIASLDPESARIVMDTLRDINQNDGITVVVTLHQVDYALRYCERIVALRQGHVFYDGSSQQFDNERFDHLYRSINRVEENAKAA | – | – | – | – | – | – | – | – | – | – | 0.231 ± 0.32 h | 0.931 ± 0.95 h
6 | MKKVVTVCPYCASGCKINLVVDNGKIVRAEAAQGKTNQGTLCLKGYYGWDFINDTQILTPRLKTPMIRRQRGGKLEPVSWDEALNYVAERLSAIKEKYGPDAIQTTGSSRGTGNETNYVMQKFARAVIGTNNVDCCARVUHGPSVAGLHQSVGNGAMSNAINEIDNTDLVFVFGYNPADSHPIVANHVINAKRNGAKIIVCDPRKIETARIADMHIALKNGSNIALLNAMGHVIIEENLYDKAFVASRTEGFEEYRKIVEGYTPESVEDITGVSASEIRQAARMYAQAKSAAILWGMGVTQFYQGVETVRSLTSLAMLTGNLGKPHAGVNPVRGQNNVQGACDMGALPDTYPGYQYVKDPANREKFAKAWGVESLPAHTGYRISELPHRAAHGEVRAAYIMGEDPLQTDAELSAVRKAFEDLELVIVQDIFMTKTASAADVILPSTSWGEHEGVFTAADRGFQRFFKAVEPKWDLKTDWQIISEIATRMGYPMHYNNTQEIWDELRHLCPDFYGATYEKMGELGFIQWPCRDTSDADQGTSYLFKEKFDTPNGLAQFFTCDWVAPIDKLTDEYPMVLSTVREVGHYSCRSMTGNCAALAALADEPGYAQINTEDAKRLGIEDEALVWVHSRKGKIITRAQVSDRPNKGAIYMTYQWWIGACNELVTENLSPITKTPEYKYCAVRVEPIADQRAAEQYVIDEYNKLKTRLREAALA | 4.17 ± 0.28 h | – | – | – | – | – | – | – | – | – | – | –
7 | MLSPLLKRYTWNSAWLYYARIFIALCGTTAFPWWLGDVKLTIPLTLGMVAAALTDLDDRLAGRLRNLIITLFCFFIASASVELLFPWPWLFAIGLTLSTSGFILLGGLGQRYATIAFGALLIAIYTMLGTSLYEHWYQQPMYLLAGAVWYNVLTLIGHLLFPVRPLQDNLARCYEQLARYLELKSRMFDPDIEDQSQAPLYDLALANGLLMATLNQTKLSLLTRLRGDRGQRGTRRTLHYYFVAQDIHERASSSHIQYQTLREHFRHSDVLFRFQRLMSMQGQACQQLSRCILLRQPYQHDPHFERAFTHIDAALERMRDNGAPADLLKTLGFLLNNLRAIDAQLATIESEQAQALPHNNDENELADDSPHGLSDIWLRLSRHFTPESALFRHAVRMSLVLCFGYAIIQITGMHHGYWILLTSLFVCQPNYNATRHRLKLRIIGTLVGIAIGIPVLWFVPSLEGQLVLLVITGVLFFAFRNVQYAHATMFITLLVLLCFNLLGEGFEVALPRVIDTLIGCAIAWAAVSYIWPDWQFRNLPRMLERATEANCRYLDAILEQYHQGRDNRLAYRIARRDAHNRDAELASVVSNMSSEPNVTPQIREAAFRLLCLNHTFTSYISALGAHREQLTNPEILAFLDDAVCYVDDALHHQPADEERVNEALASLKQRMQQLEPRADSKEPLVVQQVGLLIALLPEIGRLQRQITQVPQETPVSA | 5.89 h | 5.69 h | – | – | 5.95 ± 0.25 h | 3.21 ± 0.3 h | – | > 16 h | 5.03 ± 1.3 h | 13.4 h | 6.49 ± 0.13 h | –
